{"source": "patent US20240076390A1", "key": {"[1]": {"target": "Recombinant Human Axl Protein Axl-tag 5 (human) (UniProt P30530)", "sequence (P30530 26-451)": "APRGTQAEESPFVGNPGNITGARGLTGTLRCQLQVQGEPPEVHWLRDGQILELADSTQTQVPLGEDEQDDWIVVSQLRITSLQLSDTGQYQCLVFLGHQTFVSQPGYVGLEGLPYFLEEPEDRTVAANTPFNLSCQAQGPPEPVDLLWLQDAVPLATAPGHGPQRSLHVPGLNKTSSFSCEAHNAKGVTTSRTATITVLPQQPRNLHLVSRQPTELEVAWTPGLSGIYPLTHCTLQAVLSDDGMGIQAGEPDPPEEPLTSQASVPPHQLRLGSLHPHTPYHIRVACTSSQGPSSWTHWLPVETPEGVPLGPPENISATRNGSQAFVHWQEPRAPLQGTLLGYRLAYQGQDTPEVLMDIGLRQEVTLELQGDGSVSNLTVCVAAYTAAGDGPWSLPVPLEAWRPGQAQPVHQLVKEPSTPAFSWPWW", "assay": "competition ELISA on immobilized Axl-tag 5; unlabeled antibody 50 ug/mL; competitor Biot-v77-2a37.1 1 ug/mL"}, "[2]": {"target": "Recombinant Human Axl Protein Axl-tag 5 (human) (UniProt P30530)", "assay": "competition ELISA on immobilized Axl-tag 5; unlabeled antibody 50 ug/mL; competitor Biot-M77-297b81.1.1 1 ug/mL"}, "[3]": {"target": "Recombinant Human Axl Protein Axl-tag 5 (human) (UniProt P30530)", "assay": "competition ELISA on immobilized Axl-tag 5; unlabeled antibody 50 ug/mL; competitor Biot-v77-2a37.1 1 ug/mL (signal is of the biotinylated antibody)"}, "[4]": {"target": "Recombinant Human Axl Protein Axl-tag 5 (human) (UniProt P30530)", "assay": "competition ELISA on immobilized Axl-tag 5; unlabeled antibody 50 ug/mL; competitor Biot-M77-297b81.1.1 1 ug/mL (signal is of the biotinylated antibody)"}}, "data": [{"substance": "AXL(C89E7) rabbit anti-human Axl monoclonal antibody (Cell Signaling)", "values": [{"measurement": "% competition", "setting": "[1]", "value": 3.3, "unit": "%"}, {"measurement": "% competition", "setting": "[2]", "value": 1.5, "unit": "%"}, {"measurement": "OD (650 nm)", "setting": "[3]", "value": "1.81 OD (650 nm)"}, {"measurement": "OD (650 nm)", "setting": "[4]", "value": "2.13 OD (650 nm)"}]}]}
